Data: patent US20240277762A1 (published 2024)

Columns and labels:
[1] = target: T1, PRAME peptide on HLA-A*02:01 (human); assay: killing
T1 peptide: SLLQHLIGL

[2] = target: T2, PRAME peptide on HLA-A*02:02 (human); assay: cytokine release
T2 peptide: SLLQHLIGL

[3] = target: T3, PRAME peptide on HLA-A*02:04 (human); assay: cytokine release
T3 peptide: SLLQHLIGL

[4] = target: T4, PRAME peptide on HLA-A*02:09 (human); assay: cytokine release
T4 peptide: SLLQHLIGL

binding result [2]: recognises
binding result [3]: recognises
binding result [4]: recognises
B1: T23.8-2.1-027-004 (TCR, V domains shown)
Valpha: GQQLNQSPQSMFIQEGEDVSMNCTSSSIFNTWLWYKQDPGEGPVLLIALYKAGELTSNGRLTAQFGITRKDSFLNISASIPSDVGIYFCAGLADYGGSQGNLIFGKGTKLSVKP
Vbeta: DSGVTQTPKHLITATGQRVTLRCSPRSGDLSVYWYQQSLDQGLQFLIQYYNGEERAKGNILERFSAQQFPDLHSELNLSSLELGDSALYFCASSVWASGGYEQYFGPGTRLTVT
binding result [1]: recognises
